Reference: patent US20240366775A1 (PEPTIDREAM, published 2024)

B1: nivolumab (Selleckchem, Cat. No. A2002) (antibody, V domains shown)
VH: QVQLVESGGGVVQPGRSLRLDCKASGITFSNSGMHWVRQAPGKGLEWVAVIWYDGSKRYYADSVKGRFTISRDNSKNTLFLQMNSLRAEDTAVYYCATNDDYWGQGTLVTVSS
VL: EIVLTQSPATLSLSPGERATLSCRASQSVSSYLAWYQQKPGQAPRLLIYDASNRATGIPARFSGSGSGTDFTLTISSLEPEDFAVYYCQQSSNWPRTFGQGTKVEIK
B2: pembrolizumab (Selleck Biotech Co., Ltd., Cat. No. A2005) (antibody, V domains shown)
VH: QVQLVQSGVEVKKPGASVKVSCKASGYTFTNYYMYWVRQAPGQGLEWMGGINPSNGGTNFNEKFKNRVTLTTDSSTTTAYMELKSLQFDDTAVYYCARRDYRFDMGFDYWGQGTTVTVSS
VL: EIVLTQSPATLSLSPGERATLSCRASKGVSTSGYSYLHWYQQKPGQAPRLLIYLASYLESGVPARFSGSGSGTDFTLTISSLEPEDFAVYYCQHSRDLPLTFGGGTKVEIKR
B3: ipilimumab (Selleck Biotech Co., Ltd., Cat. No. A2001) (antibody, V domains shown)
VH: QVQLVESGGGVVQPGRSLRLSCAASGFTFSSYTMHWVRQAPGKGLEWVTFISYDGNNKYYADSVKGRFTISRDNSKNTLYLQMNSLRAEDTAIYYCARTGWLGPFDYWGQGTLVTVSS
VL: not shown

These binders were tested against T1, recombinant hTfR described in Example 2 of WO2018/124121, random biotinylated (human, UniProt P02786 89-760, randomly biotinylated with NHS-PEG4-Biotin) (assay: ELISA, target on streptavidin plate, sample at 100 nM, anti-human IgG-HRP).
T1 construct: held on a streptavidin plate for ELISA; also called human TfR
T1 sequence (P02786 89-760 limits assumed): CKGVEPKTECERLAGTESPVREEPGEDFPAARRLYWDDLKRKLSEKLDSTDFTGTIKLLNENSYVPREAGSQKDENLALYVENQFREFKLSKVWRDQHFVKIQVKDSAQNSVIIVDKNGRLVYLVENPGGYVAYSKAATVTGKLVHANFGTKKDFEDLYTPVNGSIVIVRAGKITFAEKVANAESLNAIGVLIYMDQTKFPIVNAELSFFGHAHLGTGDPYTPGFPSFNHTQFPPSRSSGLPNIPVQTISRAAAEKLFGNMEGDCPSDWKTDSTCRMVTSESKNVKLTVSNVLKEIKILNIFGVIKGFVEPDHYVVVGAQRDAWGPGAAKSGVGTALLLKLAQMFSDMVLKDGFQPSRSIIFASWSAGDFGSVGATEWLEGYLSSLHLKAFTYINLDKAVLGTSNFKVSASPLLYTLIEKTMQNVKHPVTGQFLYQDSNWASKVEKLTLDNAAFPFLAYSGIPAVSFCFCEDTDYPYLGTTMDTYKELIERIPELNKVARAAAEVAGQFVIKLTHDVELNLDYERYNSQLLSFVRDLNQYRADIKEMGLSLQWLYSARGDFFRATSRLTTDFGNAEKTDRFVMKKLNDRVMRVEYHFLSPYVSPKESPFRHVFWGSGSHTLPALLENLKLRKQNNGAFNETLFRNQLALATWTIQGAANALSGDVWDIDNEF

Binder	Abs450 nm at 100 nM [Abs450 nm]
B1	0.049
B2	0.041
B3	0.0435
